Results: paper PMC2139951

Experiments:
[1] = biological target: Ran (recombinant, GTP form) (UniProt P62826)
[2] = biological target: Ran (recombinant, GTP form) (UniProt P62826); assay: inhibition of GAP-induced GTP hydrolysis on Ran

Row | offrate [1] | Kd [2] | Substance
1 | 2 h | 25 nM | recombinant Xenopus RanBP7 with COOH-terminal his-tag (natural protein)
2 |  | 0.8 nM | recombinant importin-β (from UniProt Q14974 1-876) (natural protein; other documents disagree on this pair)
